Test results reported in patent publication US20160228563A1 (USTAV ORGANICKE CHEMIE A BIOCHEMIE AKADEMIE VED CR V V I, published 2016).
Square brackets hold non-standard residues; d marks the D form. * marks the point of attachment. 1Nal = N[C@@H](Cc1cccc2ccccc12)C(=O)O; Stearoyl = CCCCCCCCCCCCCCCCCC(=O)*; Palmitoyl = CCCCCCCCCCCCCCCC(=O)*; Nle = CCCC[C@H](N)C(=O)O

T1: human PrRP receptor GPR10 transfected in CHO cells (human, UniProt P49683 1-370)
T1 construct: whole, on cells; also called GPR10 human receptor; human GPR10 receptor
T1 sequence (looked up): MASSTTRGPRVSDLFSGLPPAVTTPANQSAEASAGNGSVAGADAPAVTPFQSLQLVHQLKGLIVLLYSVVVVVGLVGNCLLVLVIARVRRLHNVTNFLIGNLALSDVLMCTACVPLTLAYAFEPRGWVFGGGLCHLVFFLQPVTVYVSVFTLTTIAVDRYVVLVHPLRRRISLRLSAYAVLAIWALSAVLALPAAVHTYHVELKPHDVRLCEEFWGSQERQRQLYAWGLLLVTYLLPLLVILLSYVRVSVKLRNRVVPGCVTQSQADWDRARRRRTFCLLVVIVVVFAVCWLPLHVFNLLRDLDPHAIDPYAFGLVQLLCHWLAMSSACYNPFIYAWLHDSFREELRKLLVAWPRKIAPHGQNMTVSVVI

T2: rat PrRP receptor (GPR10) in RC-4B/C rat pituitary cells (rat, UniProt Q64121 1-370)
T2 construct: whole, on cells; receptor as expressed by RC-4B/C cells (ATCC); also called rat receptor; rat RC-4B/C cell receptor
T2 sequence (looked up): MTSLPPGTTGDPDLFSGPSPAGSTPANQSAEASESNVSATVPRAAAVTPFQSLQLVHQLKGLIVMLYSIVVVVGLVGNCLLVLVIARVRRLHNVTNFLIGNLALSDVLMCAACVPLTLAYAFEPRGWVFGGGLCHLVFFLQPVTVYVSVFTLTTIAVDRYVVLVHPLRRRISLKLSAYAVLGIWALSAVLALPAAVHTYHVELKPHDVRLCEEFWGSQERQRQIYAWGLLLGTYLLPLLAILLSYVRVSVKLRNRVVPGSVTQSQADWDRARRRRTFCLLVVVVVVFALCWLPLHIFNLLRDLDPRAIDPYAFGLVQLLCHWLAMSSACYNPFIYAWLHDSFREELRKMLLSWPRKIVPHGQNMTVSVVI


How the values were obtained:
[1] = target: T1, human PrRP receptor GPR10 transfected …; experiment: 125I-human PrRP31 displacement, CHO-GPR10 cells
Protocol: (§1) Competitive binding experiments were performed according to Motulsky and Neubig (Motulsky, A., et al., “Analyzing radioligand binding data,” Curr Protoc Neurosci, Chapter 7, Unit 7.5, 2002). Binding experiments were conducted with rat pituitary cells, and with Chinese Hamster Ovary (CHO) cells as follows:
CHO cells transfected with human PrRP receptor GPR10 (Perkin Elmer, USA) were grown on 24-well plates coated with polyethyleneimine. The cells were grown to the optimal density of 40-80 thousand cells per well.
(§2) Plates were incubated for 60 minutes at room temperature. After incubation, the cells were solubilized in 0.1 mol/l solution of NaOH, and the radioactivity bound to the cells was counted using a γ-counter. The experiments were performed in duplicate, and repeated at least three times.

[2] = target: T2, rat PrRP receptor (GPR10) in RC-4B/C …; experiment: 125I-rat PrRP31 displacement, RC-4B/C cells
Protocol: as §1
The rat pituitary cell line RC-4B/C (ATCC, Manassas, USA) was grown on 24-well plates which had their bottom coated with polyethyleneimine. The cells were grown to the optimal density of 300-450 thousand cells per well.
as §2

% of PrRP31 [1] [%] | % of PrRP31 [2] [%] | Binder
7 | – | Stearoyl-SRAHQHS[Nle]ETRTPDINPAWYTGRGIRPVGRF-NH2 [PrRP analog no. 9]
– | 111 | Palmitoyl-SRAHQHS[Nle]ETRTPDINPAWYTGRGIRPVGR[1Nal]-NH2 [PrRP analog no. 12]
